In paper doi:10.1101/2024.11.27.625426 (bioRxiv, 2024):

Assays:
[1] = target: sNAp of A/New Caledonia/20/1999 (NC99, H1N1) NA (Influenza A virus A/New …, UniProt Q7TG96, stabilised); experiment: ELISA; details: both partners purified
[2] = target: T1, NA of influenza B-Victoria lineage virus B/Colorado/06/2017 (B/Vic CO17) (Influenza B virus B/Colorado/06/2017 …, UniProt A0A1X9RX69); experiment: ELISA; details: both partners purified
T1 construct: not shown: His6, N-terminal, kept

Row | Binder | binding result [1] | binding result [2]
1 | NCS.1.1 mAb (IgG) (antibody, V domains shown, copies: 2 + 2) VH: QVQLQESGPRLVKPSETLSLTCSVSGESISSGGYYWTWIRQHPGKGLEWIGNIFDTGSTDYSPSLKTRLTISIDTSKNQFYLRLNSATAADTAVYYCARVGFSLETDRPYYLGLDVWGQGTTVTVSS VL: DIVMTQSPLSLPVTPGEPASISCRSSQSLLHSNGYTYLDWYLQKPGQSPQLLISFTSNRASGVPDRFSGSGSGTYFTLKISRVEAEDVGVYYCMQAVQTPWTFGQGTKVEIK | binds | binds
2 | NCS.1.3 mAb (IgG) (antibody, V domains shown, copies: 2 + 2) VH: QVQLQESGPRLVKPSETLSLTCSVSGESISSGGYYWTWIRQHPGKGLEWIGNIFDTGSTDYSPSLKTRLTISIDTSKNQFYLRLTSATAADTAVYYCARVGFSLETDRPYYLGLDVWGQGTTVTVSS VL: DIVMTQSPLTLPVTPGEPASISCRSSQSLLHSNGYTYLDWYLQKPGQSPQLLIYFASNRASGVPDRFSGSGSGTYFTLKISRVEAEDVGVYYCMQAVQSPWTFGQGTKVEIK | binds | binds
